The target in assay [1] is synthetic stem helix peptide (SARS-CoV-2 spike residues 1140-1164) (SARS-CoV-2), P0DTC2. Description: ELISA, peptide adsorbed on the plate, mAb titrated. In general terms: An ELISA detects its analyte on a solid surface through an enzyme-linked reagent.
The target of assay [2] is synthetic fusion peptide (SARS-CoV-2 spike residues 808-833) (SARS-CoV-2), P0DTC2. Description: ELISA, coated antigen, mAb titrated.

B1: Cov30-14 (antibody)
chain 1: QVQLVQSGAEVKKPGASVKVSCQTSGYTFTSYYMHWVRQAPGQGLEWMGLITPSGDDTYYAQRFQGRVTMTRDTSTSPTYMELSSLTSEDTAVYYCAKMSRAGGFDVWGQGTLVTVSS
chain 2: EVVLTQSPGTLSLSPGERATLSCRASQSITGRYLAWYQQKPGQAPRLLMYGESSRVTGIPDRFSGGGSGTDFTLTISRLEPEDFAVYYCQHFASSPPTYTFGQGTKLEIR
In assay [1], B1 displayed an EC50 (read off the curve) of 0.03 mg/L.

B2: Cov89-22 (antibody)
chain 1: QEQLVQSGAEVKKPGASVKVSCKSSGFTFSYFYLHWVRQAPGQGLEWMGIINPRGDGTRYAQKFQGRVTMTRDASTGTLYMELRSLRSEDTAVYYCARGADHGAFDIWGQGTMVTVSS
chain 2: EIVLTQSPGTLSLSPGERATLSCRASQSVRRNYFAWYQQKRGQAPRLLIYDASTRATGIPDRFSGSGSGTDFTLTISRLEPEDFAVYYCQQYDSSPPMYIFGQGTKLEIK
B2 came in with an EC50 (read off the curve) in assay [1] of 0.02 mg/L.

B3: COV44-79 (antibody)
chain 1: QVQLVESGGGVVQPGRSLRLSCAASGLTFSGYAMHWVRQAPGKGLEWVAVISRDARNKYYADSVKGRFTISRDNSKKTVYLEMNSLRVEDTAVYYCAILIIPGITEPGSPDALDIWGQGTMVSVSS
chain 2: DIQMTQSPSSMSASVGDRVTITCRASQDISKWLAWYQQRPGKAPKLLIYAASSLQSGVPSRFSGSGSGTDFTLTISSLQPEDFATYYCQQASSFPWSITFGQGTRLEIR
B3 registered an EC50 (read off the curve) in assay [2] of 0.7 mg/L.

The EC50 (read off the curve) is the concentration giving half of the maximal effect. Higher therefore signals lower potency in that assay.
